# Experimental data from patent CN114044821A (INST MILITARY MEDICINE ACADEMY MILITARY SCIENCES PLA, dated 2022).
# B1: 抗SARS-CoV-2全人源单克隆抗体ZWC12 (antibody, V domains shown)
# VH: EVQLVESGGALVQPGGSLRLSCAASGFTFANYAMSWVRQAPGKGLEWVSSMTGSSIDSYYADSVKGRFTISRDNSRNTLYLQMNSLRAEDTAVYYCAKGELLWFGDLLHNWFDPWGRGTLVTVSS
# VL: DIVMTQSPATLSVSPGERATLSCRASQSVSTNLAWYQQKPGQAPRLLIHGASTRATGLPARFSGSGSGTEFTLTISSLQSEDFAVYFCQQYDSWPGTFGPGTKVDIKR
# Legend:
# Gamma株刺突蛋白(S蛋白)，在假病毒表面 = Gamma株刺突蛋白(S蛋白)，在假病毒表面 (SARS-CoV-2 Gamma株 (P.1)); experiment: cell-based or functional assay
# Alpha株刺突蛋白(S蛋白)，在假病毒表面 = Alpha株刺突蛋白(S蛋白)，在假病毒表面 (SARS-CoV-2 Alpha株 (B.1.1.7)); experiment: cell-based or functional assay
# [1] = molecular target: Delta株刺突蛋白(S蛋白)，在假病毒/真病毒表面 (SARS-CoV-2 Delta株 (B.1.617.2)); experiment: cell-based or functional assay
# Omicron株刺突蛋白(S蛋白)，在假病毒表面 = Omicron株刺突蛋白(S蛋白)，在假病毒表面 (SARS-CoV-2 Omicron株 (B.1.1.529)); experiment: cell-based or functional assay
# [2] = molecular target: Beta株刺突蛋白(S蛋白)，在假病毒/真病毒表面 (SARS-CoV-2 Beta株 (B.1.351)); experiment: cell-based or functional assay
# SARS-CoV-2 WT S-ECD蛋白 = SARS-CoV-2 WT S-ECD蛋白 (SARS-CoV-2, UniProt P0DTC2 14-1213)
binder,measurement,setting,value
B1,"假病毒中和 EC50 (luciferase, HEK293T)",Gamma株刺突蛋白(S蛋白)，在假病毒表面,0.136 µg/mL
same,"假病毒中和 EC50 (luciferase, HEK293T)",Alpha株刺突蛋白(S蛋白)，在假病毒表面,0.124 µg/mL
same,"假病毒中和 EC50 (luciferase, HEK293T)",[1],0.411 µg/mL
same,"真病毒中和 EC50 (Vero E6, crystal violet)",[1],7.97 µg/mL
same,"假病毒中和 EC50 (luciferase, HEK293T)",Omicron株刺突蛋白(S蛋白)，在假病毒表面,0.093 µg/mL
same,"假病毒中和 EC50 (luciferase, HEK293T)",[2],0.162 µg/mL
same,"真病毒中和 EC50 (Vero E6, crystal violet)",[2],721 µg/mL
same,Kd,SARS-CoV-2 WT S-ECD蛋白,1.75 nM
